Measured values: article PMC3795957 (Nature biotechnology, 2013)
Where no end group is shown, it is not given here.

Biological target: T1, wild-type (WT Asp) peptide GEKKGNYVVTDH (also: biotin (site not given here))
T1 chain: GEKKGNYVVTDH
Experiment: SPR

B1: humanized version of the 1i8i Fab (Parent) (Fab, V domains shown)
VH: EVQLVESGGGLVQPGGSLRLSCVTSGFTFRKFGMSWVRQAPGKGLEWVASISTGGYNTYYSDSVKGRFTISRDNSKNTLYLQMNSLRAEDTAVYYCTRGYSSTSYAMDYWGQGTLVTVSS
VL: DIVLTQSPATLSLSPGERATLSCMTSTDIDDDMNWYQQKPGQAPRLLISEGNTLRPGVPARFSGSGSGTDFTLTISSLEPEDFAVYYCLQSFNVPLTFGQGTKVEIK
kon: 338000 M⁻¹ s⁻¹
